Test: label from the status in PepcDB records

Row | Sequence | protein production
1 | MLKQRVITAMWLLPLMLGMLFYAPQWLWAAFCGLIALIALWEYARMGGLCKIKTNHYLAATLVFGVVAYAGGWMLPNLVWYVVLAFWLAVMPLWLRFKWRLNGGWQVYAVGWLLVMPFWFALVSLRPHPDDALPLLAVMGLVWVADICAYFSGKAFGKHKIAPAISPGKSWEGAIGGAVCVAVYMTAVRSAGWLAFDTGWFDTVLIGLVLTVVSVCGDLLESWLKRAAGIKDSSKLLPGHGGVFDRTDSLIAVISVYAAMMSVLN | failed
2 | MPCRGLHAIPAGPPEFPELATIYVVCGDKLNVMIDAGVTNSIMDSSFLEKLDLVILTHIHIDHIGLLPEILDRYKNAKVMIKNGFKKFLTTEDGVRRLNESSEKVLGDLYYIYGEFTKIDPDKVVEVEGGEMIDIGDGKTLKIIYTPGHAKHHISVVSDDILFTGDSGGAYFNGAVIPTTPPPLDYDNYVNSLRLQISLKPKVVGLAHGGLVSPNILEQHLDQMLGKESFDIGEIDIGGIGGEILRKQVEVNLRGLNEALGRNKKTLLEHHHHHH | failed
3 | MAGTTEITTKPERVVVLDTGELDSVLSLGITPVGMTTTKGANPVPSYLADKVKDVERVGTINELNIEAIAALKPDLIIGSQLRADKLYPQLSDIAPTVFSIRPGSPWKENFLLVGEALGMEKEAEEKLNEYADRVAELKNNVPQNTEVSLVRFMPNKLRLYGNKSLIGVVLADAGLARPEKQNVDDLAVEISPENIDQAAGSVIFYTSYGKPDATGETAVVEGPAWKNLEAVAAGKAHRVNDDVWFLGLGPTGAMEIVSDLHDYLLEHHHHHH | not failed
4 | MSKDGLSNDQVSSMKEAFMLFDTDGDGKIAPSELGILMRSLGGNPTESQLKSIITTENLSSPFDFNRFLDLMAKHLKTEPFDRQLRDAFKVLDKEGTGFVAVADLRHILTSIGEKLQPSEFDEWIKEVDVGSDGKIRYEDFIARMVAK | failed
5 | MANEATQELFQVLDNTAIILQNELEISYLEAVYETGENLFQKEVLQKEELSSEKQLKLQESYESIELENFSNEEIRKGLQLALLKGMKHGIQVNHQMTPDSIGFIVAYLLEKVIQKKKNISILDPACGTANLLTTVINQLELKGDVDVHASGVDVDDLLISLALVGADLQRQKMTLLHQDGLANLLVDPVDVVISDLPVGYYPDDENAKTFELCREEGHSFAHFLFIEQGMRYTKPGGYLFFLVPDAMFGTSDFAKVDKFIKKNGHIEGIIKLPETLFKSEQARKSILILRKADVNVKPPKEVLLANLSSLTDPSVTAPILAEIENWFKSKQ | not failed
6 | MISSLKLTEMCTHCGFCLETCPTYVVTRNEVHSPRGRIEAVRIGINSTGFETCMYCRLCETACPAGVKYAQIITPVRKSSLKKTVMEKMLENPKLLAKSLKLLSKANSYPEVQRFVKFVKPNEVSEPLETDGEGDIILFPGCIESVIFRKTVEKAYKYLGKKYKVKIINGCCGLAHISNGNYEGAKKLAIRLAEKVKGKKVITLQSNCAAFMKEYKEWFGIEINAYDFAEFLIKEGIELPKVNDTFTVHYPCHAYRQKLVSHIRNVAEKMGIKIREMEDPHFECGAGGDYWLSHPKLSDMVMNVKRGKIAKSEAKKVIVTNSVCALAIRSMGYDVYHIADLLDT | failed
7 | MLSKFLLFSARLSTTKILASLIIIMILATGLYQWLIHTPAFSPQVSAVSTTTENDFSLTDWTINLVDKLNWQQGGSSTFFNAGLLFVFLSLATSVGLPRQIAALVAGINLGAFIGIIVATLAATLGCFITFSVARYLLSDCITRKYPSKLAQLSAFLGEQTFLKAIVIRILPLGSNFITNIIAGVSKVSMPAYVSGSFVGFIPQMVIFSLAGSGIRLGAQNELIASATLFVIALILTTYLVKKHKAKTKN | failed
8 | MNELPIILLSPLIGGALAWLIRVKGIREAIGVVSSAIPLYFLIKLYPALEGEPIRYSLNVGGFELTLALSHISWIFAMIAAVVGLSAVLGLVSTAKDSNEWLFALMSLAGALGVFLANDFVVFFLSWEIMTFASFMMVFKYNRHASLKYFVLSIAGAYAMLLAIGIIYAKTGSLSFPEISAIFRQDAMMGMMGGGGVFTKTETLLIYALFLVAFGVKAGMFPLHVWAPDAYSETNQSYTAMFSGVLSKTGVYGFFLLYLLMYGKLAITLGNVRSAPTFGYIIAFLGGLTIMVGGILAALQEDIRKLFAYSSISQIGYILIGLGIGTPLGIAAATYHAISHALFKGLFFLIVATIIYRTGKTEFKDYGGLAEKMPITFAMAFVAILSLAGIPPMAGFASKWLIFEAVISRNLPILGAMVFFGSAIGFVYLIRFTYAVWFGQRPSDLEDVKDAPLPLAIGMGILAILNVIFGVAPGLVARELNKLFSNPPIGGTIWELDLGFGRYNGLLLSIWLVIGLIIAAILYFMGAGVRKVPVTDTYQSGNPVTMEYNLTIRRNFFLPLKEAMAFWLKMSFDRLYHDIWKAIEELADLARSYVYNGNIQAYAWYLAIILLILVAMGV | failed
9 | MMMLPEACIANILAFTSPADAFSSSEVSSVFRLAGDSDFVWEKFLPSDYKSLISQSTDHHWNISSKKEIYRCLCDSLLIDNARKLFKINKFSGKISYVLSARDISITHSDHASYWSWSNVSDSRFSESAELIITDRLEIEGKIQTRVLSANTRYGAYLIVKVTKGAYGLDLVPAETSIKSKNGQISKSATYLCCLDEKKQQMKRLFYGNREERMAMTVEAVGGDGKRREPKCRDDGWMEIELGEFETREGEDDEVNMTLTEVKGYQLKGGILIDGIEVRPKT | failed
10 | VDKCDEPLSILVRNNKGRSSTYEVRLTQTVAHLKQQVSGLEGVQDDLFWLTFEGKPLEDQLPLGEYGLKPLSTVFMNLRLRGGGTEP | failed
11 | MSELVINNNIVNDLLIKQFTNYVFMMIVTDIKGNIIYANKKYCQFNHINFESIKNKRYNLFYLVDENQDVFSNISDNKEVIRLEAKNPNKNKQEVWEDINIVPIFDKNNLISHYAFLSLDITD | failed
12 | MADHNNTPPFDLTKLDHYIKYQPREEAEDFFVHVEVKVLGKGSSPLEISFSTSVYEFVWEDEDCYELVELYEFFTEDAGIDAFEAQFLVNDLILYVNKTTRPLDEDFTGVFKLMAEVTLKPVQLNHAGSQKTESQQP | failed
13 | MDVSFEFEHYQVRLIKSSDAVTIANYFMRNRHHLAPWEPKRSHAFFTPEGWKQRLLQLVELHKHNLAFYFVVVDKNEHKIIGTVSYSNITRFPFHAGHVGYSLDSEYQGKGIMRRAVNVTIDWMFKAQNLHRIMAAYIPRNEKSAKVLAALGFVKEGEAKKYLYINGAWEDHILTSKINDDWKP | not failed
14 | MNKHASQPRAIYYVVALQIWEYFSFYGMRALLILYLTNQLKYNDTHAYELFSAYCSLVYVTPILGGFLADKVLGNRMAVMLGALLMAIGHVVLGASEIHPSFLYLSLAIIVCGYGLFKSNVSCLLGELYEPTDPRRDGGFSLMYAAGNVGSIIAPIACGYAQEEYSWAMGFGLAAVGMIAGLVIFLCGNRHFTHTRGVNKKVLRATNFLLPNWGWLLVLLVATPALITILFWKEWSVYALIVATIIGLGVLAKIYRKAENQKQRKELGLIVTLTFFSMLFWAFAQQGGSSISLYIDRFVNRDMFGYTVPTAMFQSINAFAVMLCGVFLAWVVKESVAGNRTVRIWGKFALGLGLMSAGFCILTLSARWSAMYGHSSLPLMVLGLAVMGFAELFIDPVAMSQITRIEIPGVTGVLTGIYMLLSGAIANYLAGVIADQTSQASFDASGAINYSINAYIEVFDQITWGALACVGLVLMIWLYQALKFRNRALALES | failed
15 | MPAKVLINGYGSIGKRVADAVSMQDDMEVIGVTKTKPDFEARLAVEKGYKLFVAIPDNERVKLFEDAGIPVEGTILDIIEDADIVVDGAPKKIGKQNLENIYKPHKVKAILQGGEKAKDVEDNFNALWSYNRCYGKDYVRVVSCNTTGLCRILYAINSIADIKKARIVLVRRAADPNDDKTGPVNAITPNPVTVPSHHGPDVVSVVPEFEGKILTSAVIVPTTLMHMHTLMVEVDGDVSRDDILEAIKKTPRIITVRAEDGFSSTAKIIEYGRDLGRLRYDINELVVWEESINVLENEIFLMQAVHQESIVIPENIDCIRAMLQMEEDNFKSIEKTNKAMGIQ | not failed
16 | MLSRLFLLFALVPFLELYLLVQVGTVIGAAPTILLVILTAVVGAWLARTQGLGVMARVQNDLARGIMPGQALIDGFCILLAGLLLLTPGFLTDVVGLLLLLPPFRALLASRLQRHFAVRYASSGTTAEGGHFIVYGSSGPAAHEEPRHAVVIDTQPIDSSSAATGLADDTKPLGDAQPSGDGRPRS | failed
17 | MTELATMEFHAQPQAGEPKPWAFPAPERGSLDNGLTVLRCHRPGQQVVAVEVLLDAPLDAEPAGLDGVATIMARAFSEGTDKHSAEDFAAELERCGATLDAHADHPGVRLSLEVPASRLGKALGLLADALRAPAFADGEVERLVRNRLDEIPHELANPSRRAAKELSKELFPADARMSRPRQGTEETVETIDSAAVRAFYERHVRPATATAVVVGDLTGVDLDALLADTLGAWTGSAAEPRPVPPVTADDRGRVVIVDRPGAVQTQLLIGRTGADRHDRVWPAQVLGTYCLGGTLTSRLDRVLREEKGYTYGVRAFGQVLRSAPDGTGAAMLAISGSVDTPNTGPALEDLWTVLRKLAAEGLTDAERDVAVQNLVGVAPLKYETAAAVASTLADQVEQHLPDDFQATLYRQLAATGTVEATAAVVNAFPVDRLVTVLVGDAAQIKEPVEALGIGEVTVVAAE | failed
18 | DPSVFSLPDSKLPGDKEFVPWQQDLDDSVKPTQQARPTVIRWSEGGKEVFISGSFNNWSTKIPLIKSHNDFVAILDLPEGEHQYKFFVDGQWVHDPSEPVVTSQLGTINNLIHVKKSDFEVFDALKLDSMESSETSCRV | failed
19 | MNDRARELASRLIRNFNEASLEHEVREPLYESAAARLGTGTVAHKLGASVDVVAPGKRSCPYHFHHAQEEMFVIIEGEGSLRVAGEMLPIKTGDVLFIPAGPEYPHQIINTSQAPLKYLSISTRETPEVCEYPDSGKYQAMVSANGARVFTANQRTTENVDYWDGEPLEHHHHHH | not failed
20 | MRIHSIILLLFLLVISPVAGSISITDSTASKFDRYFYEGVRQREQENYAAAFDIFRYCHRLNPNDAALLSELGKLYIAIGRQEEGTRYLEQAYRLYPDNKNYGNILGAVYERQGRADDAVRLYEEMSEQFPSEDELRFKLANMYVQAGEIDKAIYIYNRMEAQNAVNAADASNYAEIRARLYLMTGQTNKALNELRRLCNRFPEVNEFRLKYAGTLLDSEKYDEAYEQLQLIARTDSTSGLYHFAMASYYLGTNEKEAAINEMIKVAADKDVAPEQKLPIILRFIGTDTDEEDAPKKEYNILLEKILASHPTEVDARLFYAELLEMQGDSIHAMEVCRPITEFAPKEERAWKFMLGRAVTGQNHTEVHRISEQARQYLPGVPLFYLYDAISYYIEKKGSEAKHILQEALEHIDAEKDPNGLSDIYSQLGDLAYEENKPEEAFANYEKALELNPRNVGVLNNYAYFLAKEGGDLAKAERMAAQCVKLLPDNAVSLDTYGWVFFLRENYTLAKLYIEKALGLAADNPDADVVEHHGDVLYMLGEKEKAMLEWKRAKEIGGGGSPMLDKKIEQGKYIPEKKK | failed
21 | MSTLISTPRTKMSPIRAEDWALFQRLHIEPSVISLCFDKPDERVLRDKFESRLASWTPECDHWLCLTIFDANTQQPIGITGFVLEEDKAEVGYLLLPEFHGQQFGTETLNALLHWAETTHDILRFSATVTEGNVASERVLTKCGFELSQVIPDAYQIGGKHYADKIYSRQK | failed
22 | MCENEEYRERFPDKHFDLETVLQAKVRPICVVPERTFIGFFHREKSKEEEEKEDVSLDFLKGVMSFDSIWEEIMKQEPEESASEHVIYIVSWNDHYFVLLVNHDAYYIIDTLGERVYEGCNQAYVLKFDQDAEIKRLPSVIKDNKADMGSQKQGGKNKYEQPERSKESEEQGEEVVVCRGKESCREYIKSFLAAIPIQQVKADMKEGLVSSFHHRLQIELYYTKHLHHRQPNMFESSTTKVTVSEATVSMTVAWLLASQFSNSGGFGCEMAELLGIKV | failed
